Data taken from IntAct's records for PubMed 19219046.

B1: ATP-dependent RNA helicase DDX19B (Homo sapiens), Q9UMR2-1 (parent)
chain: MATDSWALAVDEQEAAAESLSNLHLKEEKIKPDTNGAVVKTNANAEKTDEEEKEDRAAQSLLNKLIRSNLVDNTNQVEVLQRDPNSPLYSVKSFEELRLKPQLLQGVYAMGFNRPSKIQENALPLMLAEPPQNLIAQSQSGTGKTAAFVLAMLSQVEPANKYPQCLCLSPTYELALQTGKVIEQMGKFYPELKLAYAVRGNKLERGQKISEQIVIGTPGTVLDWCSKLKFIDPKKIKVFVLDEADVMIATQGHQDQSIRIQRMLPRNCQMLLFSATFEDSVWKFAQKVVPDPNVIKLKREEETLDTIKQYYVLCSSRDEKFQALCNLYGAITIAQAMIFCHTRKTASWLAAELSKEGHQVALLSGEMMVEQRAAVIERFREGKEKVLVTTNVCARGIDVEQVSVVINFDLPVDKDGNPDNETYLHRIGRTGRFGKRGLAVNMVDSKHSMNILNRIQEHFNKKIERLDTDDLDEIEKIAN

Variants of: B1
Settings: with NUP214, P35658-1
Sequence of NUP214, P35658-1 (P35658 whole entry): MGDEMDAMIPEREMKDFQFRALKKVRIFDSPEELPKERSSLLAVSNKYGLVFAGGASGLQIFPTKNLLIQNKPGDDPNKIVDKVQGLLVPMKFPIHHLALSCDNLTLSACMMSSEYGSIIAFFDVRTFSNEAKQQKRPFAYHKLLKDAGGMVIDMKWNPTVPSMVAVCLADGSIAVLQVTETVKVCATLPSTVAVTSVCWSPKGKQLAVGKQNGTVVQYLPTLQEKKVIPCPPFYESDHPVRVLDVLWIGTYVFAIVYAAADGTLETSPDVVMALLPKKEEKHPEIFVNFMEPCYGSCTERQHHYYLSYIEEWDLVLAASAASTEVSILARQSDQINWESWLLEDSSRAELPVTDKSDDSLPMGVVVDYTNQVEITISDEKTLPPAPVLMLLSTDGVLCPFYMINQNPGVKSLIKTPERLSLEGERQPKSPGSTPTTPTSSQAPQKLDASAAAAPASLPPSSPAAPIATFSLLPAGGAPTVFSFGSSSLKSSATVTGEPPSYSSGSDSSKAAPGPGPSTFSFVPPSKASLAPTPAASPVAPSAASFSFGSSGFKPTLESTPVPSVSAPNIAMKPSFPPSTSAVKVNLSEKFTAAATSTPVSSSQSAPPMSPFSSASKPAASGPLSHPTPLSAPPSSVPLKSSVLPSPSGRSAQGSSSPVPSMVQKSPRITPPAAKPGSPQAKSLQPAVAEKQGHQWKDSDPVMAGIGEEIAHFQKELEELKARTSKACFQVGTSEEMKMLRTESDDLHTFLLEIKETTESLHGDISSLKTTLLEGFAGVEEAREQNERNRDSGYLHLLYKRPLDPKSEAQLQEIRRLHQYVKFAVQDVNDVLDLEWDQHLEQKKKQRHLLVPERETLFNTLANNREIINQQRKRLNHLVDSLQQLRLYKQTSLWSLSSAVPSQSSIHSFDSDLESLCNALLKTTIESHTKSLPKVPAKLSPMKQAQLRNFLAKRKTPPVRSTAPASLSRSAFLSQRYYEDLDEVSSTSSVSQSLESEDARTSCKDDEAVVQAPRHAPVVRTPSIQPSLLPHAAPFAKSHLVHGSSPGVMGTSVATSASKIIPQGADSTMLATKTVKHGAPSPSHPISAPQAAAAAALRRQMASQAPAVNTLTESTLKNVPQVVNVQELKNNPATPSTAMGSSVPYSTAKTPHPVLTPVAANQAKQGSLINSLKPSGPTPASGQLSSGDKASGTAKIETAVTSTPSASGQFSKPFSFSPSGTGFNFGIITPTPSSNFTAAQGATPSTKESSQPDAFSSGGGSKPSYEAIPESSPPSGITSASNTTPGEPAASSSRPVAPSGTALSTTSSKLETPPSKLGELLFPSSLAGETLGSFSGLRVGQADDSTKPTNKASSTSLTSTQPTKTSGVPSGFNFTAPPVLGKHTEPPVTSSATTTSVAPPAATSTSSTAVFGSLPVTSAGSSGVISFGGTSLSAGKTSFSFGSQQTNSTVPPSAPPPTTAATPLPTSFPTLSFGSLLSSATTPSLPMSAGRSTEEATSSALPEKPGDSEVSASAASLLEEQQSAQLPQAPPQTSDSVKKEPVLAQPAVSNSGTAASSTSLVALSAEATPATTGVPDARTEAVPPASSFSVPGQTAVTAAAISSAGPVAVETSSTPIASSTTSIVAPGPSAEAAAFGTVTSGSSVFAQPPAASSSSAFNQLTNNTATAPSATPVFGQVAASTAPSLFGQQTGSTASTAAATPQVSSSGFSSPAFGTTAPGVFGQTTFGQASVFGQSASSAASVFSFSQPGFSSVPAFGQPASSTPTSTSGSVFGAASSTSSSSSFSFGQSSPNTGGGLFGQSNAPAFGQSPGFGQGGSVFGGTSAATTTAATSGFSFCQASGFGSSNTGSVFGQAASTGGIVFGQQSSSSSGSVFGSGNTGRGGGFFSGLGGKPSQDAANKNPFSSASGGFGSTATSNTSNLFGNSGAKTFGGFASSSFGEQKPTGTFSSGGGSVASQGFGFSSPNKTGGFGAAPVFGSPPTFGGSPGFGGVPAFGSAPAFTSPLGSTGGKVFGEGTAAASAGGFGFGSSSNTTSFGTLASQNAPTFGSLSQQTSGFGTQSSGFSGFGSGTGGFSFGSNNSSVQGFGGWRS

Effect of a mutation on the interaction, disrupting interaction:
D223R
I258A
R259D
R262A
